{
  "source": "patent US20210363247A1",
  "about": "“Novel Treatments of Glaucoma” (The Regents of the University of California, priority 2019, published 2021)",
  "key": {"mouse": {"test_system": "mouse", "assay": "mouse model, inhibitor delivered locally by eye drops, IOP", "type": "in vivo", "source_text": "(§1) These protocols employ two different antibodies: anti-human WNTSA antibody produced in rabbit purified immunoglobulin, buffered aqueous solution (Sigma-Aldrich SAB1411396), and an anti-human WNTSA monoclonal antibody produced in mouse clone 6F2, ascites fluid (Sigma-Aldrich SAB5300183), although other Wnt5a antibodies can be used, e.g. Hanaki et al., Mol Cancer Ther 11(2) February 2012; He et al. Oncogene. 2005, 24 (18): 3054-3058.\n(§2) These protocols employ a t-butyloxycarbonyl-modified Wnt5a-derived hexapeptide (Box5) that functions as a potent antagonist of Wnt5a (Jenei, et la., PNAS USA, 106 (46), 19473-8), and 6,7-dihydro -10alpha-hydroxy radicicol, a potent WNT-5A expression inhibitor with relatively low toxicity and excellent stability (Shinonaga et al. Bioorg Med Chem. 2009 Jul. 1; 17(13):4622-35).\n(§3) These protocols employed OMP18R5 (a humanized monoclonal antibody that binds FZD5), Abcam ab52565 (a monoclonal antibody that binds FZD2), and cirmtuzumab (a humanized IgG1 anti-ROR1 monoclonal antibody), though an anti-human FZD5, FZD2 siRNA and ROR1 polyclonal and monoclonal antibodies, are commercially available from multiple sources, e.g. ThermoFisher Scientific, Abcam, SigmaAldrich, etc.); see also U.S. Pat. No. 9,573,998 for antibodies against human FZD5."}, "rabbit": {"test_system": "rabbit", "assay": "rabbit model, inhibitor delivered locally by eye drops, IOP", "type": "in vivo", "source_text": "as §1, §2, §3"}, "[1]": {"test_system": "human Schlemm's canal cells", "assay": "tube formation of human Schlemm's canal cells", "type": "cell-based", "settings": "in vitro; vs scrambled siRNA, isotype control or vehicle control of ethanol (0.07%); *P<0.05", "source_text": "FIGS. 1A-G. (A-C) Real-time quantitative PCR data showing the expression levels of FZD5, ROR1 and FZD2 in human Schlemm's canal cells are regulated by sheer stress (A), Wnt5a intervention by small interference RNAs (siRNAs) (B), or Wnt5a stimulation (C). (D and E) Summarized data showing that tube formation of human Schlemm's canal cells was inhibited by FZD5 siRNA (D) or ROR1 siRNA (E), respectively. Scrambled siRNA was used as negative control. *P<0.05. (F and G) Representative images showing that tube formation of human Schlemm's canal cells are regulated by the intervention of FZD5 (F) or ROR1 (G) via siRNAs. *P<0.05. […]\nIn exemplary models vivo data were obtained using well-established mouse model of glaucoma with laser-induced occlusion of episcleral veins (Zhang L, et al. Establishment and Characterization of an Acute Model of Ocular Hypertension by Laser-Induced Occlusion of Episcleral Veins. Invest Ophthalmol Vis Sci. 2017 Aug. 1; 58(10):3879-3886). […] Central corneal thickness and RNFL were measured on Day 3 or Day 7 by in vivo OCT, respectively. […]"}, "[2]": {"test_system": "human Schlemm's canal cells", "assay": "Fluo-4 staining of intracellular calcium signal", "type": "cell-based", "source_text": "(§4) FIGS. 2A-C. (A-C, top panels) Real-time quantitative PCR data showing the expression levels of PLCB1, PPP3R1 and NFATC3 in human Schlemm's canal cells are regulated by sheer stress (A), Wnt5a intervention via siRNAs (B), or Wnt5a stimulation (C). (A-C, lower panels) Representative images and summarized data of Fluo-4 staining showing intracellular calcium signal is regulated by sheer stress (A), Wnt5a intervention via siRNAs (B), or Wnt5a stimulation (C). Green: Fluo-4, blue: DAPI nuclear staining *P<0.05.\nIn exemplary models vivo data were obtained using well-established mouse model of glaucoma with laser-induced occlusion of episcleral veins (Zhang L, et al. Establishment and Characterization of an Acute Model of Ocular Hypertension by Laser-Induced Occlusion of Episcleral Veins. Invest Ophthalmol Vis Sci. 2017 Aug. 1; 58(10):3879-3886). Intraocular hypertension is introduced in the right eyes (OD) of the mice with the left eyes (OS) as controls. In these examples, the inhibitors or their controls were delivered daily to the right eyes via local administration of subconjunctival injection, starting from Day 1 after the induction of intraocular hypertension in the right eyes of the mice. Left eyes were used as controls. Central corneal thickness and RNFL were measured on Day 3 or Day 7 by in vivo OCT, respectively. All in vitro data were collected from human Schlemm's cells in culture."}, "[3]": {"test_system": "human Schlemm's canal cells", "assay": "real-time quantitative PCR of expression levels in human Schlemm's canal cells", "type": "cell-based", "source_text": "FIGS. 1A-G. (A-C) Real-time quantitative PCR data showing the expression levels of FZD5, ROR1 and FZD2 in human Schlemm's canal cells are regulated by sheer stress (A), Wnt5a intervention by small interference RNAs (siRNAs) (B), or Wnt5a stimulation (C). (D and E) Summarized data showing that tube formation of human Schlemm's canal cells was inhibited by FZD5 siRNA (D) or ROR1 siRNA (E), respectively. Scrambled siRNA was used as negative control. *P<0.05. (F and G) Representative images showing that tube formation of human Schlemm's canal cells are regulated by the intervention of FZD5 (F) or ROR1 (G) via siRNAs. *P<0.05.\nas §4\nFIGS. 3A-B. Real-time quantitative PCR data showing the expression of CAMK2D in human Schlemm's canal cells is regulated by sheer stress (A), or wnt5a stimulation (B), respectively. *P<0.05.\nIn exemplary models vivo data were obtained using well-established mouse model of glaucoma with laser-induced occlusion of episcleral veins (Zhang L, et al. Establishment and Characterization of an Acute Model of Ocular Hypertension by Laser-Induced Occlusion of Episcleral Veins. Invest Ophthalmol Vis Sci. 2017 Aug. 1; 58(10):3879-3886). Intraocular hypertension is introduced in the right eyes (OD) of the mice with the left eyes (OS) as controls. […] Central corneal thickness and RNFL were measured on Day 3 or Day 7 by in vivo OCT, respectively. […]"}},
  "note": "Entries after “also recorded” stand apart in the source; their conditions may differ.",
  "data": [
    {"molecule": "6,7-dihydro -10alpha-hydroxy radicicol", "values": [
      {"measurement": "therapy for pathogenic IOP", "setting": "mouse", "result": "effective therapies"},
      {"measurement": "therapy for pathogenic IOP", "setting": "rabbit", "result": "effective therapies"}
    ]},
    {"molecule": "O=C(OC[C@H]1O[C@@H](OC(=O)c2cc(O)c(O)c(O)c2)[C@H](OC(=O)c2cc(O)c(O)c(O)c2)[C@@H](OC(=O)c2cc(O)c(O)c(O)c2)[C@@H]1OC(=O)c1cc(O)c(O)c(O)c1)c1cc(O)c(O)c(O)c1", "note": "[DB03208, Beta-1,2,3,4,6-Penta-O-Galloyl-D-Glucopyranose]", "values": [
      {"measurement": "tube formation of human Schlemm's canal cells", "setting": "[1]", "result": "inhibited"}
    ]},
    {"molecule": "Wnt5a: Wnt5a used to stimulate human SC cells (protein, UniProt P41221 62-380, looked up) Protein Wnt-5a: IIGAQPLCSQLAGLSQGQKKLCHLYQDHMQYIGEGAKTGIKECQYQFRHRRWNCSTVDNTSVFGRVMQIGSRETAFTYAVSAAGVVNAMSRACREGELSTCGCSRAARPKDLPRDWLWGGCGDNIDYGYRFAKEFVDARERERIHAKGSYESARILMNLHNNEAGRRTVYNLADVACKCHGVSGSCSLKTCWLQLADFRKVGDALKEKYDSAAAMRLNSRGKLVQVNSRFNSPTTQDLVYIDPSPDYCVRNESTGSLGTQGRLCNKTSEGMDGCELMCCGRGYDQFKTVQTERCHCKFHWCCYVKCKKCTEIVDQFVCK", "values": [
      {"measurement": "intracellular calcium signal", "setting": "[2]", "result": "regulated"},
      {"measurement": "expression levels of FZD5, ROR1 and FZD2", "setting": "[3]", "result": "regulated; also recorded: increased"},
      {"measurement": "expression levels of PLCB1, PPP3R1 and NFATC3", "setting": "[3]", "result": "regulated"},
      {"measurement": "expression of CAMK2D", "setting": "[3]", "result": "regulated"}
    ]}
  ]
}
